Test results published in patent US6361968.

How the values were obtained:
c-Jun (unmodified) = c-Jun (unmodified) (UniProt P05412); experiment: thermal melt of the mixture (FIG. 4)
[1] = molecular target: bHLH MAX (unmodified Max) (UniProt P61244); experiment: homodimer, dimerization study of FIG. 9
[2] = molecular target: c-Myc bHLH protein (murine) (UniProt P01108); experiment: heterodimer with c-Myc, dimerization study of FIG. 9
c-Myc bHLH protein (murine), sequence (P01108 368-454 limits assumed, form in doubt): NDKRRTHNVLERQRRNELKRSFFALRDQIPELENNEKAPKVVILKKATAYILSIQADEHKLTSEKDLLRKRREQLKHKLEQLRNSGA

c-Jun (unmodified), sequence (P05412 241-331 limits assumed): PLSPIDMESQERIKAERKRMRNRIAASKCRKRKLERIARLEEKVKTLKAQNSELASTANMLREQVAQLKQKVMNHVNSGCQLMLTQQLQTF

Row | Tm (c-Jun (unmodified)) | Kd [1] | Kd [2] | Substance
1 | 53 °C |  |  | 0heptad-Fos (c-Fos with the basic region deleted) (designed binder)
2 |  | 6 µM | 30 nM | bHLH MAX (unmodified Max) (from UniProt P61244 23-113)
